Like-named read-outs stand apart in the source and are kept apart here.

Experimental findings from PMC8254080 (Biochemistry and Biophysics Reports, 2021) are described below.

Data set [1] deals with the molecule itself. Description: cryo-EM structure.
Data set [2] deals with the molecule itself. Description: cryo-EM structure. This is another data set of the same source.

B1: Salmonella PrgI (type 3 needle filament protomer, SPI-1) (natural protein, Salmonella (strain SB905))
chain: MATPWSGYLDDVSAKFDTGVDNLQTQVTEALDKLAAKPSDPALLAAYQSKLSEYNLYRNAQSNTVKVFKDIDAAIIQNFR
As to B1, the binding result in “cryo-EM structure [1]” is “binds”.

B2: Shigella MxiH (type 3 needle filament protomer) with N-terminal Strep-tag II and factor Xa cleavage site (natural protein, UniProt P0A223 1-83, looked up)
chain: MSVTVPNDDWTLSSLSETFDDGTQTLQGELTLALDKLAKNPSNPQLLAEYQSKLSEYTLYRNAQSNTVKVIKDVDAAIIQNFR
For B2, in “cryo-EM structure [2]”, the binding result is “binds”.
